Experimental data reported in US8748390B2, “Immunogenic epitopes of NGEP antigen” (The United States of America, as represented by the …, priority 2009, dated 2014).

Assays:
[1] = molecular target: T1, HLA-A2 molecules (Homo sapiens, UniProt P04439, D140Y/D185E/D98H/E176V/E277Q/G131W/G231S/I119V/I121R/I166T/I218V/L300P/L318F/N151K/N90K/P208A/P217A/Q86G/Q94H/R138H/R169H/T345S); assay: T2 cell-binding assay: regulation of HLA-A2 expression on T2 cells by flow cytometry; details: for T2 Binding: peptide 25 μg/mL, T2 cells, flow cytometry
T1 construct: endogenous in cells; host or cells: T2 cells
Excerpt: FIG. 1B is a graph depicting the binding of the P703 and P215 peptides to HLA-A2 molecules at various peptide concentrations. Peptide concentration (μg/mL) is on the x-axis, and mean fluorescence intensity (MFI) is on the y-axis. The positive control peptide is MUC-1, and the negative control peptide is CAP-7.
The T2 binding values are expressed in mean fluorescence intensity. The values in parentheses are fold increases as compared with the negative control (CAP-7 peptide).

[2] = molecular target: T1, HLA-A2 molecules; assay: Stability of peptide-HLA-A2 complexes on T2 cells after brefeldin A; type: binding; details: peptide 25 μg/mL overnight with T2 cells, various time points
Protocol: FIG. 1A is a graph depicting the stability of HLA-A2/NGEP complexes for various peptides. The time post-treatment with brefeldin A (hours) is on the x-axis, and the percentage of remaining complexes is on the y-axis. Results are expressed in relative percentage of binding compared to 100% at time 0.
To determine the stability of peptide-MHC complexes, several of the identified peptides (at concentrations of 25 μg/mL) were incubated with T2 cells overnight. Unbound peptides were washed off, and delivery of new class 1 molecules to the cell surface was blocked by the addition of brefeldin A. Cells then were analyzed for the presence of peptide-HLA-A2 complexes at various time points, as indicated by the degree of mean fluorescence intensity. […] P703 peptide also was determined to bind T2 cells at higher levels at various peptide concentrations than the P215 peptide and the positive control (see FIG. 1B).

[3] = system: CD8+ T cells in PBMC; assay: Tetramer staining of PBMC from healthy donors and prostate cancer patients; type: cell-based, human; details: Patients 2, 3 and 4 of four, pre-vaccination
Protocol: To determine if prostate cancer patients recognized the NGEP-P703 epitope, PBMC from four patients with metastatic prostate cancer and from four healthy donors were analyzed for the presence of CD8^+ T cells reactive with the NGEP-P703 tetramer. T cells (5×10^5) were stained with 10 μl of PE-labeled NGEP-P703/HLA-A*0201 tetramer and anti-CD8 antibody.
These same four prostate cancer patients then were analyzed for tetramer binding after receiving six monthly cycles of a PSA-based vaccine (PSA/TRICOM).

T2 Binding [1] | Sequence | other results
280 mean fluorescence intensity | ILFEILAKT [Peptide P258, NGEP long form amino acids 258-266] | 
212 mean fluorescence intensity | GLGGPPLPTL [Peptide P10, NGEP short form amino acids 10-19] | 
203 mean fluorescence intensity | IVFEHVVFSV [Peptide P855, NGEP long form amino acids 855-864] | 
565 mean fluorescence intensity | GLFDEYLEMV [Peptide P703, NGEP long form amino acids 703-712] | Binding to T2 cells at various peptide concentrations (FIG. 1B) ([1]; compared with P215 peptide and positive control): higher levels; Stability of peptide-HLA-A2 complexes (FIG. 1A) [2]: most stable complexes; Frequency of NGEP-P703 specific CD8+ T cells, prostate cancer patients versus healthy donors [3]: higher frequency
464 mean fluorescence intensity | VLLEVVPDV [Peptide P215, NGEP long form amino acids 215-223] | 
126 mean fluorescence intensity | LLAIRLWAV [Peptide P846, NGEP long form amino acids 846-854] | 
203 mean fluorescence intensity | FLDNIRAAGL [Peptide P143, NGEP short form amino acids 143-152] | 
88.0 mean fluorescence intensity | HLFGYSWYK [CAP-7, reference compound] | 
185 mean fluorescence intensity | ALLSASWAV [Peptide P170, NGEP long form amino acids 170-178] | 
452 mean fluorescence intensity | SLSYTNPAV [MUC-1, reference compound] | 
354 mean fluorescence intensity | WLLPAAVVGT [Peptide P356, NGEP long form amino acids 356-365] | 

Sequence | T2 Binding [1] | other results
LVWEEDLKL [Peptide P113, NGEP short form amino acids 113-121] | 367 mean fluorescence intensity | 
